Our source for the self-cleavage values is the RNAGym collection of RNA variant scans (doi:10.1093/nar/gkz1192).

Sequences and labels used below:
B1: CPEB3 Ribozyme (parent)
chain: UAACAGGGGGCCACAGCAGAAGCGUUCACGUCGCAGCCCCUGUCAGAUUCUGGUGAAUCUGCGAAUUCUGCUGUAUAUCUC

In this data set the parent is B1. Briefly: self-cleavage, relative activity (ratio to wild type); higher = more cleavage; in vitro, sequencing. Put shortly:
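After error-prone PCR and barcoding, CPEB3 ribozyme mutant libraries were transcribed with T7 RNA polymerase at 37°C for 5 hours, then given 15 min with DNase I before an EDTA stop, and they cleaved during both steps. Reverse transcription with template switching preceded Illumina sequencing. Relative activity divides a variant's cleaved/total read fraction by the unmutated ribozyme's. At least 5 reads were required per variant, and three batches were averaged.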
On to UAACAGGGGGCCACCGCAGAAGCGUUCACGUCGCAGCCCCUGUCAGAUUCUGCUGAAUCUGCGAAUUCUGCUGUAUAUCUC, for which the self-cleavage amounted to 0.95.

UAACAGGGGGCCACAGCAGAAGCGUUCACGUCGCAGCCCCUGACAGAUUCUGGUGAAUCUGCGAAUUCUGCUGUAUCUCUC: the self-cleavage came to 1.18.

UAACAGGGGGCCACAGCAGGAGCGUUCACGUCGAAGCCCCUGUCAGAUUCUGGUGAAUCUGCGAAUUCUGCUGUAUAUCUC: the self-cleavage turned out to be 0.11. For the variant UAACAGGGGGCCACAGCAGAAGCGUUCACGUCGCAGCCCCUGUCAGAUUCUGGUGAAUCCGCGAAUUCUGCUGUAUACCUC, the self-cleavage worked out at 0.45. For the variant UAACAGGGGGCCACAGCAGAAGCGUUCACGUCGCAGCCCCUGUCAGAUUCUGGUGAAUCUGCGAGCUCUGCUGUAUAUCUC, the self-cleavage came to 0.27. The figure for UAACAGGGGGCCACAGCAGAUGCGUUCACGUCGCAGCCCCUGUCCGAUUCUGGUGAAUCUGCGAAUUCUGCUGUAUAUCUC is 0.1; for UAACAGGGGGCCACAGCAGAAGCGUUCACGUCGCAGCCCCUGUCAGAUUCUGGAGAAUCUGCGAAUUCUGCAGUAUAUCUC it is 1.02.

Consider UAACAGGGGGCCACAGCAGAAGGGUUCACGUCGCAGCCCCUGUCAGAUUCUGGUGAAUCUGCGAAUUCUGCAGUAUAUCUC, for which the self-cleavage was found to be 0.04.

For the variant UAACAGGGGGCCACAGCAGAAGCGUUCACGUCGAAGCCCCUGUCAGGUUCUGGUGAAUCUGCGAAUUCUGCUGUAUAUCUC, the self-cleavage was 0.31. Regarding UAACAGGGGGCCACAGCAGAAGCGUUCACGUCGCAGCCCCUGUCAGAUUCUGGUCAAUCUGCGGAUUCUGCUGUAUAUCUC, the self-cleavage was determined as 0.72. Take UAACAGGGGGCCACAGCAGAAGCGUUCACGUCGCAGCCCCUGUCAGAUUCUGGUGAAUCCGCGAAUUCUGUUGUAUAUCUC: the self-cleavage turned out to be 0.3. On to UAACAGGGGGCCACAGCAGAAGCGUUCACGUCGCAGCACCUGUCAGAUUCUGGUGAAUCUGCGAAUACUGCUGUAUAUCUC, for which the self-cleavage worked out at 0.17. For the variant UAACAGGGGGCCACAGCAGAAGCGUUCACGUCGCAGCCCCUGUCCGAUUCUGGUGAAUCUGCGAAUUCUGCUGUAUACCUC, the self-cleavage came out at 0.42. The result for UAACAGUGGGCCACAGCAGAAGCGUUCACGUCGCAGCCCCUGUCAGAUUCCGGUGAAUCUGCGAAUUCUGCUGUAUAUCUC reads 0.28; that for UAACAGGGGGCCACAGCAGACGCGUUCACGUCGCAGCCCCUGUCAGAUUCAGGUGAAUCUGCGAAUUCUGCUGUAUAUCUC, 0.15; that for UAACAGGGGGCCACAGCAGAAGCCUUCACGUCGCAGCCCCUGUCUGAUUCUGGUGAAUCUGCGAAUUCUGCUGUAUAUCUC, 0.13. The result for UAAUAGGGGGCCACAGCAGAAGCGUUCACGUCGCAGCCCCUGUCAGAUUCUGGUGAGUCUGCGAAUUCUGCUGUAUAUCUC reads 1.05; that for UAACAGGGGGCCACAGCAGAAGCGUUCACGUCGCAGCCCCUGUCGGAUUCUGGUGAGUCUGCGAAUUCUGCUGUAUAUCUC, 0.66.

For UAACAGGAGGCCACAGCAGAAGCGUUCACGUCGCAGCCCCUGUCAGAUUCUGGUGAAUCUGCGAAUUCUGCUAUAUAUCUC, the self-cleavage amounted to 0.18. For UAACAGGGGGCCACAGCAGAAGCGUUCACGUCGAAGCCCCUGUCAGAUUCUGGUGGAUCUGCGAAUUCUGCUGUAUAUCUC, the self-cleavage is 0.22. The result for UAACAGGGGGCCACUGCAGAAGCGUUCACGUCGCAGCCCGUGUCAGAUUCUGGUGAAUCUGCGAAUUCUGCUGUAUAUCUC reads 0.18. On to UAACAGGGUGCCACAGCAGAAGCGUUCACGUCGCAGCCCCUGUCAGAUUCUGGUGAAUCUGCGAAUUCUGCUGUAUUUCUC, for which the self-cleavage came out at 0.16. For UAACAGGGGGCCACAGCAGAAGCGUUCACGUCACAGCCCCUGUCAGAUCCUGGUGAAUCUGCGAAUUCUGCUGUAUAUCUC, the self-cleavage was determined as 0.28.

Consider UAACAGGGGACCACAGCAGAAGCGUUCACGUCGUAGCCCCUGUCAGAUUCUGGUGAAUCUGCGAAUUCUGCUGUAUAUCUC, for which the self-cleavage worked out at 0.05. Turning to UAACAGGGGGCCACAGCAGAAGCGUUCACGUCGCAGCCCCUGUCAGAUUCAGGUGAAUCUGCGAAUGCUGCUGUAUAUCUC, the self-cleavage came to 0.43.

With UAACAGGGGGCCACAGCAGAAGCGUUCACGUCGCAGCCCCUGUCAGAUUCAGGUGAAUCUGCGAAUACUGCUGUAUAUCUC, the self-cleavage is 0.59.

As for UAACAGGGGGCCACAGCAGAGGCGUUCACGUCGCAGCCCCUGUCAGAUUCUGGUGAAUCUGCGAAUUCUACUGUAUAUCUC, the self-cleavage was 0.22.

Consider UAACAGGGGGCCACAGCAGAAGCGUUCACGUCGCAGCCCCUGUCGGAUCCUGGUGAAUCUGCGAAUUCUGCUGUAUAUCUC, for which the self-cleavage is 0.27. The result for UAACAGGGGGCCACAGCAGAAGCGUUCACGACGCAGCCCCUAUCAGAUUCUGGUGAAUCUGCGAAUUCUGCUGUAUAUCUC reads 0.18; that for UAACAGGGGGCCACAGCAGAAGCGUUCACGUCGCAGCCCCUGUCUGAUCCUGGUGAAUCUGCGAAUUCUGCUGUAUAUCUC, 0.25; that for UAACAAGGGGCCACAGCAGAAGCGUUCACGUCGCAGCCCCUGUCAGAUUCUGGUGAAUCUGCGAAUUCUGCCGUAUAUCUC, 0.4. As to UAACAGGGGGCCACAGCAGAAGCGUUCACGUCGCAGCCCCUGUCAGAUACUGGUGAAUCUGCGAAUUCUGCUGUAUAUCGC, the self-cleavage is 0.88.

Consider UAACAGGGGGCCACAGCAGAAGCGUUCACGUCGCAGCCCCUGUCAGAUCCUGGUGAAUCUGCGAAUUCUGCUGUACAUCUC, for which the self-cleavage worked out at 0.48. As for UAACAGGGGGCCACAGCAGAAGCGUUCACCUCGCAGCCCCUGUCAGACUCUGGUGAAUCUGCGAAUUCUGCUGUAUAUCUC, the self-cleavage is 0.16.
